Source: PMC3217859, “Protein phosphatase 2a (PP2A) binds within the oligomerization domain of striatin and regulates the phosphorylation and activation of the mammalian Ste20-Like kinase Mst3” (BMC Biochemistry, 2011)

T1: HA-tagged R100S/R101E striatin (human, UniProt O43815 1-780, R100S | R101E)
T1 construct: striatin, human, double point mutant in the coiled-coil domain; source: HEK293, transfected, in lysate; not shown: HA, N-terminal, kept
T1 sequence (looked up): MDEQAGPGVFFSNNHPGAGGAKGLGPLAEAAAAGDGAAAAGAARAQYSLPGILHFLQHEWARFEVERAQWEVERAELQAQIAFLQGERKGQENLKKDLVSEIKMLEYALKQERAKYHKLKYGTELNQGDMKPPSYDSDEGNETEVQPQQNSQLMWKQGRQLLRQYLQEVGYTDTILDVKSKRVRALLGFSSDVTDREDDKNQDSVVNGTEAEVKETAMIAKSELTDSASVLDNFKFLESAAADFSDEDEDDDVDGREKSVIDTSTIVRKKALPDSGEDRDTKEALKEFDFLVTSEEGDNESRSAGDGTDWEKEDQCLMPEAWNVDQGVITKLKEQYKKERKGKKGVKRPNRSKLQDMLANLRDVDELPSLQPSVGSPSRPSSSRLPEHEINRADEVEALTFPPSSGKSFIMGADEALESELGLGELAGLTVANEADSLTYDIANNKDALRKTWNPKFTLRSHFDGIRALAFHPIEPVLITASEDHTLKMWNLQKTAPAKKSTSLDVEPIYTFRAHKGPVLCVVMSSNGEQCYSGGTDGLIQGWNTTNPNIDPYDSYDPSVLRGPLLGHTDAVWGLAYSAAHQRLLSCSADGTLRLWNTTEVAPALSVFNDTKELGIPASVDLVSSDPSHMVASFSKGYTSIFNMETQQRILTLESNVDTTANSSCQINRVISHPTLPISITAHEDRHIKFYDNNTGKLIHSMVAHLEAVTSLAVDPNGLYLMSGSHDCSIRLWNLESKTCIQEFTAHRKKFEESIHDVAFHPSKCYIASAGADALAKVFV

T2: HA-tagged Δ(148-166) striatin (human, UniProt O43815 1-780, Δ(148-166))
T2 construct: source: HEK293, transfected, in lysate; not shown: HA, N-terminal, kept
T2 sequence (looked up): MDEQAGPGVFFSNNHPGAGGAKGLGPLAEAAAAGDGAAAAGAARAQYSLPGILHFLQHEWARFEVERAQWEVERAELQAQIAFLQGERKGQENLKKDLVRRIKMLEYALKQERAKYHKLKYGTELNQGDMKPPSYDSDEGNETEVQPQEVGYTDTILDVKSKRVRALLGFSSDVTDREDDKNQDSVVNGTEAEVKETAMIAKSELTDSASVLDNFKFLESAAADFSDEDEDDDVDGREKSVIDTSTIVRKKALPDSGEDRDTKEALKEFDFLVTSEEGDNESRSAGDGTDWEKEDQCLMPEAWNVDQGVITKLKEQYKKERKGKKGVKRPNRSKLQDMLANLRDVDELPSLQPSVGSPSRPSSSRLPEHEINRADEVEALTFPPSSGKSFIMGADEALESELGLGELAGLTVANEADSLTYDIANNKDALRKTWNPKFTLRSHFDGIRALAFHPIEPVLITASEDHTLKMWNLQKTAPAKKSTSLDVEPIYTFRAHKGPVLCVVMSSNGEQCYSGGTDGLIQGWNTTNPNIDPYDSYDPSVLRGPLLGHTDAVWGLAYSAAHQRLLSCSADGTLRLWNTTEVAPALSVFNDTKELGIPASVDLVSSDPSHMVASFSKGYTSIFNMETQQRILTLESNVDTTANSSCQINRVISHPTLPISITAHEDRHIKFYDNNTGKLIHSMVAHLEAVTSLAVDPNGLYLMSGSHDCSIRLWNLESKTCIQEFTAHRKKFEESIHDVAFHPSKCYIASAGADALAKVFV

T3: HA-tagged striatin with deletion of residues 191-269 (human, UniProt O43815 1-780, deletion of residues 191-269)
T3 construct: source: HEK293 or HEK293 stably expressing FLAG-CCM3, transfected, in lysate; not shown: HA, N-terminal, kept
T3 sequence (looked up): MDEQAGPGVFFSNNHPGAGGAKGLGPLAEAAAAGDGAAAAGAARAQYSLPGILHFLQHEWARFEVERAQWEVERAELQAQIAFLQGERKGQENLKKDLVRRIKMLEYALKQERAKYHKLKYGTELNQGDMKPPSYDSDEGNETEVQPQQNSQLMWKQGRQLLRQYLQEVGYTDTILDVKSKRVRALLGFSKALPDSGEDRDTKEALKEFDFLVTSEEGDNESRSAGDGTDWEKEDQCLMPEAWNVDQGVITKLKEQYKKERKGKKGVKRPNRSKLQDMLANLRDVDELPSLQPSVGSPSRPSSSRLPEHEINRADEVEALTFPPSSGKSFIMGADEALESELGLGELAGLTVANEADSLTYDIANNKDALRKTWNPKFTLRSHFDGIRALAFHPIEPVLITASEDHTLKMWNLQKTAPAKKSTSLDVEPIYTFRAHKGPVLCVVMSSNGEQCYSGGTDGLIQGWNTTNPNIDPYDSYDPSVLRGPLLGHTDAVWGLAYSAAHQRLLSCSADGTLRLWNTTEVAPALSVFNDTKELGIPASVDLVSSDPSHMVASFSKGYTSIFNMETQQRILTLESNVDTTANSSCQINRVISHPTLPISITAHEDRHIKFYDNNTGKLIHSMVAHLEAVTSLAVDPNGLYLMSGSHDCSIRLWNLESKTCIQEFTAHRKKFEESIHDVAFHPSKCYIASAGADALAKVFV

T4: HA-tagged Δ(227-309) striatin (human, UniProt O43815 1-780, Δ(227-309))
T4 construct: source: HEK293, transfected, in lysate; not shown: HA, N-terminal, kept
T4 sequence (looked up): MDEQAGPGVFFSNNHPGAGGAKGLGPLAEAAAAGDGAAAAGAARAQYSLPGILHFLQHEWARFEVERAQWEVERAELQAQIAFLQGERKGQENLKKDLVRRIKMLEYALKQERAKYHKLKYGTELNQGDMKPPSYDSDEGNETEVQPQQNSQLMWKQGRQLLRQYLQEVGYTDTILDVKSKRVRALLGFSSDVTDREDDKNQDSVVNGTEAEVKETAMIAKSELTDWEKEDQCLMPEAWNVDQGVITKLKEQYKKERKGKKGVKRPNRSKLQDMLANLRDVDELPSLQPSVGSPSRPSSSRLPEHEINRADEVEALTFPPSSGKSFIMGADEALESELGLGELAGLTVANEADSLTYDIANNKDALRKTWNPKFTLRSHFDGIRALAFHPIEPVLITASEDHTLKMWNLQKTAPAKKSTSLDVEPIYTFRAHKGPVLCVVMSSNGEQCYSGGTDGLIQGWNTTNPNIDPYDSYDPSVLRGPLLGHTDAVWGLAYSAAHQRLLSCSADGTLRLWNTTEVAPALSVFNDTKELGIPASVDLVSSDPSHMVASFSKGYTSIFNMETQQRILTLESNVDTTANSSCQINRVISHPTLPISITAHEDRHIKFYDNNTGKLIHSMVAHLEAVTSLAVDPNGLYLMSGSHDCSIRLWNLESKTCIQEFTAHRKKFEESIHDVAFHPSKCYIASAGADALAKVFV

T5: HA-tagged Δ(270-344) striatin (human, UniProt O43815 1-780, Δ(270-344))
T5 construct: source: HEK293 or HEK293 stably expressing FLAG-CCM3, transfected, in lysate; not shown: HA, N-terminal, kept
T5 sequence (looked up): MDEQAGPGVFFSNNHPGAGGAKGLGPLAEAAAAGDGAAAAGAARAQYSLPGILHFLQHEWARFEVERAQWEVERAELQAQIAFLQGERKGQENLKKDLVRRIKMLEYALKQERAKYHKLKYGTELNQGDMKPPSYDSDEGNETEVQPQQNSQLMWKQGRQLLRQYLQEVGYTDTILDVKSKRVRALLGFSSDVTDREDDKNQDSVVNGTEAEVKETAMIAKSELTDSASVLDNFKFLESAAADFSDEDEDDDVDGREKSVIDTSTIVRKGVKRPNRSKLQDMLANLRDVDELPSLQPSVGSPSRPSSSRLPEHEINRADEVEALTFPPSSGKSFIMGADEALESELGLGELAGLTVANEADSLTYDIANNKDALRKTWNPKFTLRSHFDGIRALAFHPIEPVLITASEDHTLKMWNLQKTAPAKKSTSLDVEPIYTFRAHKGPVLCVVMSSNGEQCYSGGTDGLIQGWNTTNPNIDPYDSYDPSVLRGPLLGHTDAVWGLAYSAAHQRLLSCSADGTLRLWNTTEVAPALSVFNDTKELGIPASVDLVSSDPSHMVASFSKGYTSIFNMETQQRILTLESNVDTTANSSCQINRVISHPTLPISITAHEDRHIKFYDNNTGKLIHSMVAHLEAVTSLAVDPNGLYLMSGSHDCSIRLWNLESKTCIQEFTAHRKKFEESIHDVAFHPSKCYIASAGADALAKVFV


Columns and labels:
Assay in all cases: co-IP; anti-HA immunoprecipitates (12CA5 with protein A-Sepharose, or F7 anti-HA-agarose when probing for Mst3 or Mst4; 1.5 h, 4°C) of lysates (1% Nonidet P-40, 0.135 M NaCl, 10% glycerol, 20 mM Tris pH 8.0) of HEK293 cells transfected with HA-striatins; endogenous partners by immunoblot, partner/HA-striatin ratio by chemilumimager against wild type; 50 mM NaF and 100 nM okadaic acid in the lysis buffer in the …
Settings in all cases: partners not purified
[1] = target: T1, HA-tagged R100S/R101E striatin
[2] = target: T2, HA-tagged Δ(148-166) striatin
[3] = target: T3, HA-tagged striatin with deletion of …
[4] = target: T4, HA-tagged Δ(227-309) striatin
[5] = target: T5, HA-tagged Δ(270-344) striatin

Sequence of Mst4 kinase (Q9P289 whole entry): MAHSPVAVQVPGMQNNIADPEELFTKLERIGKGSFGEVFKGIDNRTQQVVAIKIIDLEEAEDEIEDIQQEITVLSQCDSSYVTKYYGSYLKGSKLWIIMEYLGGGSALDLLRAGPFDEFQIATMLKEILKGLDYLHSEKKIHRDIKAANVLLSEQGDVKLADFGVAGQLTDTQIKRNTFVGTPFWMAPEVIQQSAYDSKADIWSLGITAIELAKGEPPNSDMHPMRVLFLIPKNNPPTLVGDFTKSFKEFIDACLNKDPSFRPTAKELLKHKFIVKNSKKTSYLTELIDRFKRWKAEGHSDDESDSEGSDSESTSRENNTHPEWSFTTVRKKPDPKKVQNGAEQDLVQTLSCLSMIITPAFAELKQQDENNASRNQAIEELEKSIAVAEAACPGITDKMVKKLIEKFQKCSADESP

Row | Binder | percent of the wild-type level bound [1] | fold binding against wild-type striatin [2] | percent reduction in binding against wild-type striatin [3] | percent reduction in binding against wild-type striatin [4] | percent reduction in binding against wild-type striatin [5]
1 | S/G2 nuclear autoantigen (SG2NA) (natural protein, human (endogenous in HEK293), UniProt Q13033 1-797, looked up, SG2NA, striatin family member, endogenous in HEK293 cells; source: endogenous, HEK293 lysate) MDELAGGGGGGPGMAAPPRQQQGPGGNLGLSPGGNGAAGGGGPPASEGAGPAAGPELSRPQQYTIPGILHYIQHEWARFEMERAHWEVERAELQARIAFLQGERKGQENLKKDLVRRIKMLEYALKQERAKYHKLKYGTELNQGDLKMPTFESEETKDTEAPTAPQNSQLTWKQGRQLLRQYLQEVGYTDTILDVRSQRVRSLLGLSNSEPNGSVETKNLEQILNGGESPKQKGQEIKRSSGDVLETFNFLENADDSDEDEENDMIEGIPEGKDKHRMNKHKIGNEGLAADLTDDPDTEEALKEFDFLVTAEDGEGAGEARSSGDGTEWDKDDLSPTAEVWDVDQGLISKLKEQYKKERKGKKGVKRANRTKLYDMIADLGDDELPHIPSGIINQSRSASTRMTDHEGARAEEAEPITFPSGGGKSFIMGSDDVLLSVLGLGDLADLTVTNDADYSYDLPANKDAFRKTWNPKYTLRSHFDGVRALAFHPVEPVLVTASEDHTLKLWNLQKTVPAKKSASLDVEPIYTFRAHIGPVLSLAISSNGEQCFSGGIDATIQWWNMPSPSVDPYDTYEPNVLAGTLVGHTDAVWGLAYSGIKNQLLSCSADGTVRLWNPQEKLPCICTYNGDKKHGIPTSVDFIGCDPAHMVTSFNTGSAVIYDLETSQSLVILSSQVDSGLQSNNHINRVVSHPTLPVTITAHEDRHIKFFDNKTGKMIHSMVAHLDAVTSLAVDPNGIYLMSGSHDCSIRLWNLDSKTCVQEITAHRKKLDESIYDVAFHSSKAYIASAGADALAKVFV | 81 % of wild-type level | – | – | – | –
2 | mammalian Ste20-like kinase Mst3 (enzyme, Mst3 kinase, endogenous in HEK293 cells; Runs as a lower and an upper (hyperphosphorylated) band; both are found with striatin; source: endogenous, HEK293 lysate) not shown | – | ~3.5 fold | ~33% | – | –
3 | Mst4 kinase (enzyme, Mst4 kinase, endogenous in HEK293 cells; source: endogenous, HEK293 lysate) not shown | – | ~4 fold | 33% | 38% | 75%
